Earlier results as cited in PMC12206923.

Molecular target: dimeric IL-2 receptor (Homo sapiens) (UniProt P14784)
UniProt P14784, sequence (P14784 27-240, chain 1 of 2): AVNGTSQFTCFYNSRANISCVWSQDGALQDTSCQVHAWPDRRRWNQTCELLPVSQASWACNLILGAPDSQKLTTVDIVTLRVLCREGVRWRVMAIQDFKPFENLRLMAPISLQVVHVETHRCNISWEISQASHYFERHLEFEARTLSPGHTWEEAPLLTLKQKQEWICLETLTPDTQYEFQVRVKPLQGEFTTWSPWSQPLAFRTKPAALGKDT
UniProt P14784, sequence (P31785 23-262, chain 2 of 2, further chain): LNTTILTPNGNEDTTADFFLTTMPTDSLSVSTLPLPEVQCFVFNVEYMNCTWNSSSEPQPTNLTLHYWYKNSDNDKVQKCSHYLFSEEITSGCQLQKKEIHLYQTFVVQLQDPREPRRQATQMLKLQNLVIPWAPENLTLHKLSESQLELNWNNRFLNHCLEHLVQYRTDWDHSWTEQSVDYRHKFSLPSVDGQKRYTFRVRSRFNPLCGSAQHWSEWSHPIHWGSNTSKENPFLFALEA

IL-2, sequence (P60568 21-153): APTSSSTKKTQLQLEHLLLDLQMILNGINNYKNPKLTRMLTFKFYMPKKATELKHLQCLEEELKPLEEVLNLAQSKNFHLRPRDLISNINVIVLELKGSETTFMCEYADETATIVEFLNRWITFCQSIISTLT

For IL-2 (from UniProt P60568), the Kd is given as 1 nM.
